Patent US20230183305A1, “KERATIN BD-11, PREPARATION METHOD THEREFOR AND PHARMACEUTICAL COMPOSITION AND USE THEREOF” (INSTITUTE OF MATERIA MEDICA, CHINESE ACADEMY OF MEDICAL …, priority 2019, published 2023)

Test system: ammonia water induced cough in ICR mice
Test: Antitussive test, cough induced by ammonia water in mice
Format: in vivo, mouse
Details: for Incubation period (cough): 10% ammonia water 10 s; for Incubation period (cough) / Number of coughs: X±SEM, n=9; for Number of coughs: within 2 minutes
Method: • Animals: male ICR mice; • Drugs and reagents: dextromethorphan hydrobromide, ammonia water, 0.2% CMC-Na, protein BD-11; • Apparatus: Compressed nebulizer (403T type), balance (XS105DU type).
Experiment grouping: • Solvent control group; • Dextromethorphan 15 mg/kg group; • Protein BD-11, 20 mg/kg group, 50 mg/kg group.
Dextromethorphan and different doses of protein BD-11 (administration volume 10 ml/kg) were given orally in groups, and the solvent control group was given the same volume of distilled water. One hour later, mice were put into a sealed box and atomized 10% ammonia water for 10 seconds, and then observed and recorded the incubation period of cough in mice and the number of coughs in 2 minutes.
Record the time point of oral administration, the time point of atomization experiment, the incubation period of mice cough and the number of coughs within 2 minutes, respectively. The incubation period of cough refers to the number of seconds from the start of the atomization of ammonia to the occurrence of cough. The performance of coughing in mice is based on contraction of their abdominal muscles (breast contraction) and opening their mouths at the same time. Calculate the mean and standard error of each group of data, and use TTEST to compare the model group with other groups, and P<0.05 is considered as a significant difference.
Give dextromethorphan (15 mg/kg) and different doses of protein BD-11 (20 mg/kg, 50 mg/kg) in advance, One hour later, the mice were put into a sealed box and atomized 10% ammonia water for 10 seconds, and then the mice were observed and recorded the incubation period of coughing and the number of coughs within 2 minutes.

[1] = BD-11 50 mg/kg dose group, P<0.05

B1: BD-11: recombinant keratin, amino acid sequence SEQ ID NO:1, expressed in E. coli, band around 59 kD; Example 4 batch tested (protein, listed as Bos taurus)
chain: MSRQSTITFQTSSRRGFSTASATTPATSRSRFSSASVTHSPAGSGGLGRISGFGSRSLYNLGGTKRVSISGCGSNFRSGFGGRASSGFGVSGGFGYGGGIGGGHGGCGFSVCPPGGIQEVTVNQSLLTPLNLQIDPNIQRVRKEEREQIKTLNNKFASFIDKVRFLEQQNKVLETKWSLLQEQGTRTVRQSLEPFFEAYITDLRRQLDSITTERGRLDAELRTMQDVVEDFKVRYEDEINKRTAAENEFVALKKDVDAAYLNKVDLEAKANSLTDEINFLQMLFEAELCQMQTRVSDTSVVLSMDNNRSLDLDSIIAEVKAQYEEIANRSRAEAESWYQTKYEELQVTAGQHGDDLRNTKQEISETNRMIQRLRAEIDNVKKQCASLQTAIADAEQRGELALKDARAKLVDLEEALQKSKQDMARLLREYQELMNIKLALDVEIATYRKLLEGEECRLSGEGVSPVNISVVTSTVSSGYGGGSSIGSGSLGLSGGSGCSFMTSGGHSLGGSSFSNSSSRGLGGSGSSFKFVSTTSSSRKSYKH
- Incubation period (cough) (BD-11 20 mg/kg oral): 30.0 ± 3.2 s
- Number of coughs (BD-11 20 mg/kg oral): 61.8±4.7
- Cough incubation period vs solvent control group [1]: significant improvement
- Number of coughs vs solvent control group [1]: significant improvement effect
- Incubation period (cough) (BD-11 50 mg/kg oral): 35.8 ± 2.0 s
- Number of coughs (BD-11 50 mg/kg oral): 50.0±4.6
- Effect on cough incubation period (summary) (dose not given): prolong the incubation period
- Effect on number of coughs (summary) (dose not given): significantly reduce the number of coughs
